Measured values from article PMC5323130 (Oncotarget, 2016).
One block for each molecule: values may come before it. Where a SMILES comes first, the peptide text is derived from it. Where no end group is shown, it is not given here.

Experiments:
[1] = target: T1, hPD-1 (Homo sapiens, UniProt Q15116); assay: SPR direct binding assay, hPD-1 immobilized on CM5 sensor chip; conditions: steady-state model, PBS-P buffer pH 7.4, 25°C, mean ± SD from three independent experiments
T1 construct: extracellular region of hPD-1 (amino acids 34–150); made in house; host or cells: E. coli BL21 (DE3)
T1 sequence (Q15116 34-150): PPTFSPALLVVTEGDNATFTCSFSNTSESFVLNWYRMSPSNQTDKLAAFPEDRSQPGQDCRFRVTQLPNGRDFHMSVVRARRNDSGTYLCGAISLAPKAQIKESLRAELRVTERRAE
Experimental: The purified active hPD-1 was diluted in 10 mM sodium acetate buffer (pH 4.5) to the final concentration of 50 μg/ml. The diluted hPD-1 was immobilized on a CM5 sensor chip by amino coupling reagent kit, and the immobilization level was 5000 response unit (RU). Binding experiments were performed in PBS-P buffer (8 mM Na2HPO4, 2 mM KH2PO4, 137 mM NaCl, 2.7 mM KCl, 0.005% surfactant P20, pH 7.4) at 25°C with a flow rate of 30 μl/min. […] RU values were collected and all the experimental data was globally analyzed by a steady-state model within Biacore T200 Evaluation software, version 2.0.

[2] = target: T2, human programmed death 1 (hPD-1), extracellular region (amino acids 34-150) (human, UniProt Q15116 34-150); assay: SPR; Biacore T200; hPD-1 immobilised on a CM5 chip by amine coupling (5000 RU); peptides or hPD-L1 injected 90 s, dissociation 120 s; PBS-P buffer pH 7.4, 25°C, 30 μl/min; steady-state model; conditions: both partners purified
T2 construct: extracellular region of human PD-1, amino acids 34-150, cloned into pET28a between NcoI and NdeI sites; purification was by cation exchange and gel filtration; also called CD279
T2 sequence (Q15116 34-150): as above

[3] = target: T2, human programmed death 1 (hPD-1), …; assay: as above; conditions: both partners purified; remark: listed apart in the source
[4] = target: T2, human programmed death 1 (hPD-1), …; assay: as above; conditions: both partners purified; remark: listed apart in the source

- Kd [1]: 22.4 ± 0.34 µM
Molecule: N[C@@H](Cc1c[nH]c2ccccc12)C(=O)N[C@@H](CC(=O)O)C(=O)N[C@@H](Cc1ccc(O)cc1)C(=O)N[C@@H](CC(=O)O)C(=O)O [Ar3_1, WDYD] (H-WDYD-OH)

- Kd [1]: 20.1 ± 0.98 µM
Molecule: GNWDANSQRAQLYNQ [Peptide Y5A]

B1: Ar5M_2 (peptide)
peptide: LDYVNRRKMYQ
notes: peptide designed with anchor residues R113, M115, A121, D122 and Y123 of hPD-L1; source: synthetic peptide (Fmoc solid-phase synthesis)
- Kd [2]: 3.32 µM

B2: Ar5Y_1 (peptide)
peptide: FNWDYSWKSERLKEAYDL
notes: de novo designed peptide with anchor residues Y56, R113, A121, D122 and Y123 of hPD-L1; source: synthetic peptide (Fmoc solid-phase synthesis)
- Kd [3]: 3.39 µM

B3: Ar5M_1 (peptide)
peptide: LDYGDKREGQMAE
notes: as for B1
- Kd [2]: 21.6 µM

B4: Ar4_1 (peptide)
peptide: GIDYEERWK
notes: peptide designed with anchor residues R113, A121, D122 and Y123 of hPD-L1; source: synthetic peptide (Fmoc solid-phase synthesis)
- Kd [2]: 28.3 µM

B5: Ar4_2 (peptide)
peptide: LDYDGRLSQ
notes: as for B4
- Kd [2]: 83.9 µM

B6: Ar5Y_3 (peptide)
peptide: TEKDYRHGNIRMKLAYDL
notes: as for B2
- Kd [3]: 3.13 µM

B7: Ar5Y_4 (peptide)
peptide: GNWDYNSQRAQLYNQ
notes: as for B2
- Kd [3]: 1.38 µM

B8: Ar5Y_4 mutant R9A (peptide)
peptide: GNWDYNSQAAQLYNQ
notes: numbers count on the peptide itself; source: synthetic peptide (Fmoc solid-phase synthesis)
- Kd [4]: 21.2 µM

B9: Ar5Y_4 mutant Y5A (peptide)
peptide: GNWDANSQRAQLYNQ
notes: as for B8
- Kd [4]: 20.2 µM

B10: Ar5Y_4 mutant W3A (peptide)
peptide: GNADYNSQRAQLYNQ
notes: as for B8
- Kd [4]: 8.08 µM

B11: Ar5Y_4 mutant D4A (peptide)
peptide: GNWAYNSQRAQLYNQ
notes: as for B8
- Kd [4]: 18.9 µM

B12: Ar5Y_4 mutant Y13A (peptide)
peptide: GNWDYNSQRAQLANQ
notes: as for B8
- Kd [4]: 10.2 µM

B13: Ar5Y_2 (peptide)
peptide: FNWDYSLEELREKAKYK
notes: as for B2
- Kd [3]: 3.14 µM
